# Numbering of substitutions follows the chain as printed.
# B1: P2X7PMP14F6 (VHH)
# VHH: EVQLVESGGGLVQAGGPLRLSCAASGSFFRVNNMAWYRQAPGKQRELVADITRGDRTNYADSVNGRFTISRDNVRNTVYLQMNGLKPEDTAVYYCYARIELGVLEPRDYWGQGTQVTVSS
# notes: family 5, 2; on phage or c-myc/His6-tagged in assays
# B2: P2X7PMP14G4 (VHH)
# VHH: B1 VHH with P17S, R19G, S27N, N33T, S62T, V92A
# notes: as for B1
# B3: P2X7PMP14F10 (VHH)
# VHH: B1 VHH with P17S, S21L, Y94S, V103I
# notes: as for B1
# B4: P2X7PMP14G11 (VHH)
# VHH: B1 VHH with Q13K, A14P, P17S, A40G, R98T
# notes: family 5, 3; on phage or c-myc/His6-tagged in assays
# B5: P2X7PMP19C2 (VHH)
# VHH: EVQLVKSGGGLVQAGGSLRLSCAASPGTFSSFNMGWFRQTPGKEREFVAATSWSDISTYYADSVKGRFTISRDNAKNTVTLEMNSLKPEDTAVYYCAAGYYRGGYLGYRLTLEGSYDVWGQGTQVTVSS
# notes: family 15; on phage or c-myc/His6-tagged in assays
# B6: P2X7PMP19E3 (VHH)
# VHH: B5 VHH with V2M, K6E
# notes: as for B5
# B7: P2X7PMP8C7 (VHH)
# VHH: EMQLVESGGGLVQAGGSLRLSCAASGRTFSSLAMGWLRQAPGKEREFVSGISRGGTSTYYADSVKGRFTISRDNAKNTMYLQMNSLKPEDTAVYYCAGSPVLSIVLDTRGLEYWGQGTQVTVSS
# notes: family 7; on phage or c-myc/His6-tagged in assays
# B8: P2X7PMP8E7 (VHH)
# VHH: B7 VHH with M2V
# notes: as for B7
# B9: P2X7PMP13G5 (VHH)
# VHH: EVQLVESGGGLVQAGGSLRLSCAASDRTFGSSAMGWFRQAPGKDRDFVAAISWSGSSTHYADSVKGRFTISRDNAKNTMYLQMNSLKPADTAVYTCAASRRAYLPAKVGEYDFWGQGTQVTVSS
# notes: family 18; on phage or c-myc/His6-tagged in assays
# B10: P2X7PMP7D6 (VHH)
# VHH: EVQLVESGGGLVQAGGSLRLSCAASGRTFGSSPVGWFRQAPGKERDFVATISWNGVDTHYLDSVKGRFTISRDNAKNTVHLQMHILKPEDTALYYCAASTSGSVYLPYRVYQYDSWGQGTQVTVSS
# notes: family 8; on phage or c-myc/His6-tagged in assays
# B11: P2X7PMP4B4 (VHH)
# VHH: EVQLVESGGGLVQAGGSLRLSCAASGRTVSDYGMGWFRQAPGKLREFVASINWSGIYTRYIDSVEGRFTISRDNTKNTLYLQMNNLKAEDTAVYYCAYFLGPNWYSNYGRPSSYDFYGQGTQVTVSS
# notes: family 4; on phage or c-myc/His6-tagged in assays
# B12: P2X7PMP7G5 (VHH)
# VHH: EVQLVESGGGLVQSGGSLRLSCAGSGFSYYIIGWFRQAPGKEREEVSCIRVTDGSTYYTNSVKGRFTMSRDNAENTVYLQMNSLKPEDTAVYSCATECQRWAYPNRIGARGQGTQVTVSS
# notes: family 12; on phage or c-myc/His6-tagged in assays
# B13: P2X7PMP13B5 (VHH)
# VHH: EVQLVESGGGLVQAGDSLRLSCAASGRTFSSYAMGWFRQAPGKEREFVAAISLSGSMTYYADSMKGRFTISRDNAKNTVYLQMNSLKPEDTAVYYCAAEELGDGLGYLAYRYDYWGQGTQVTVSS
# notes: family 19; on phage or c-myc/His6-tagged in assays
# B14: P2X7PMP7A4 (VHH)
# VHH: EVQLVESGGGLVQAGGSLRVSCAASARTGSYSMGWFRQAPGKEREFVSTISWNGADTVYADSVKGRFTISRDNAKDTVYLQMNSLKPEDTAVYYCAGSITSYVSTWQHDYEYWGQGTQVTVSS
# notes: family 9; on phage or c-myc/His6-tagged in assays
# B15: P2X7PMP13G4 (VHH)
# VHH: EVQLVESGGGLVQAGGSLRLSCAASDRTFGSSTMGWFRQPPGKNREFVATIAWSATTTHYADAVKGRFTVSRDNALNTVYLQMNSLKPEDTAVYYCAATLTWLGIHEYEYNTWGQGTQVTVSS
# notes: family 21; on phage or c-myc/His6-tagged in assays
# B16: P2X7PMP2A6 (VHH)
# VHH: EVQLVESGGDVVQAGGSLRLSCLASGFTFDDYAIGWFRQAPGKEREGISCISSTGNVFYADSVKGRFTISSDKEKNTLYLQMNSLEPEDTAVYHCAAGHFTVDSGKVLLRTDISSWGQGTQVTVSS
# notes: family 1; on phage or c-myc/His6-tagged in assays
# B17: P2X7PMP13G9 (VHH)
# VHH: EVQLVESGGGLVQAGGSLRLSCVASGRTFSILTMGWFRQAPGKEREFVAAISGIGAIHYADSVKGRFTLSRDNARNTVSLHMNSLKPEDTAVYYCAAKANYESPSRETSYAYWGQGTQVTVSS
# notes: family 23; on phage or c-myc/His6-tagged in assays
# B18: P2X7PMP7B4 (VHH)
# VHH: EVQLVESGGGLVQAGGSLRLSCAASGRNFGSYTMAWFRQAPGKGREFVSTINWSGGDTDYADSVKGRFTISRDNAKNTVYLQMDSLKPEDTAVYYCAAGLEYMSTIRYTYEYWGQGTQVTVSS
# notes: family 10; on phage or c-myc/His6-tagged in assays
# B19: P2X7PMP13B8 (VHH)
# VHH: EVQLVESGGGLVQPGGSLRLSCAASGLTLTYYNIGWFRQAPGKEREGVSCIDWTDGTTFYADSVKGRFTISTDNAKNTVYLHLNSLEPEDTAVYYCAAGWGRVMTVQHMCADRSLFTSWGQGTQVTVSS
# notes: family 13; on phage or c-myc/His6-tagged in assays
# Target: T1, mouse P2X7 (mouse, UniProt Q9Z1M0 1-595)
# T1 construct: on transfected CHO or Hek293 cells, or endogenous on Yac-1 cells; also called mP2X7; mouse purinoceptor P2X7
# T1 sequence: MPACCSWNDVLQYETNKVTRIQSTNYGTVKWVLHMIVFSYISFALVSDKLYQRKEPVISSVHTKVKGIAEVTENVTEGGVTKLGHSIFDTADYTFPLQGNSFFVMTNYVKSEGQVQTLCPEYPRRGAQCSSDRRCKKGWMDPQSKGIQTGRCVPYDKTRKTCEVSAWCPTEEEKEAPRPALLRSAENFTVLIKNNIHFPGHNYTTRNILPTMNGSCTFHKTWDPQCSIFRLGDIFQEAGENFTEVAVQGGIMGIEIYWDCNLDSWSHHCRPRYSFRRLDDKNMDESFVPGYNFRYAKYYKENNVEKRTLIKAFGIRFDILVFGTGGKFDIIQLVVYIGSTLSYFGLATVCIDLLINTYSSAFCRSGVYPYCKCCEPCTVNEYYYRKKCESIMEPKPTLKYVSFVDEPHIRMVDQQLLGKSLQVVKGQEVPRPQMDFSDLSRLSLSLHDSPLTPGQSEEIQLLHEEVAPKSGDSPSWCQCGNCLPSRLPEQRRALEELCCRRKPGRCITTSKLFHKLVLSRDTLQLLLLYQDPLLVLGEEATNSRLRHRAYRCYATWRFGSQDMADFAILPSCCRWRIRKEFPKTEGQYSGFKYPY
# Experiment: phage ELISA, mP2X7-CHO vs control CHO cells
# Protocol: (§1) Sub-confluent cells were rinsed with PBS and fixed using 4% paraformaldehyde in PBS for 10 minutes at RT. Fixed cells were washed three times with PBS, and blocked with 2% BSA in PBS for 2 hours. Following blocking, 10-fold diluted culture supernatant containing phage was added and incubated for 1 hour. Cell-bound phage was detected via mouse anti-M13-HRP-conjugate (GE Healthcare, Cat nr. E2886). Rat mAb Hano43 was used as positive control.
row,Binder,absorption ratio (ELISA)
1,B1,15 ratio
2,B2,34 ratio
3,B3,19 ratio
4,B4,30 ratio
5,B5,18 ratio
6,B6,8 ratio

# Target: T2, human P2X4 (human, UniProt Q99571 1-388)
# T2 construct: whole, on cells; also called hP2X4
# T2 sequence (looked up): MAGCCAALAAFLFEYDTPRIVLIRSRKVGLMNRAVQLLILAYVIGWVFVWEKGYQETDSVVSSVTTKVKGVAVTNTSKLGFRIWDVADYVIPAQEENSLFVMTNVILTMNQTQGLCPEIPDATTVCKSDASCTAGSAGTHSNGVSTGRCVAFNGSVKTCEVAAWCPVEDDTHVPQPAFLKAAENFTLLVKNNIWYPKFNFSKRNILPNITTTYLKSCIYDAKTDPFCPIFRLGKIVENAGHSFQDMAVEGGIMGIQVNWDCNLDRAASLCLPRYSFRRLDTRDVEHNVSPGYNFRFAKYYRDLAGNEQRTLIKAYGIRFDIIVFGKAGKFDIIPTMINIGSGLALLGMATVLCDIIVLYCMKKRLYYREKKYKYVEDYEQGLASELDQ
# Experiment: flow cytometry, Nanobody pre-incubated with anti-Myc-FITC
row,Binder,binding result
1,B7,no binding (tested: 147 nM)
2,B8,no binding (tested: 147 nM)
3,B9,no binding (tested: 147 nM)
4,B10,no binding (tested: 147 nM)
5,B11,no binding (tested: 147 nM)
6,B12,no binding (tested: 147 nM)
7,B13,no binding (tested: 147 nM)
8,B14,no binding (tested: 147 nM)
9,B15,no binding (tested: 147 nM)
10,B16,no binding (tested: 147 nM)
11,B17,no binding (tested: 147 nM)
12,B18,no binding (tested: 147 nM)
13,B19,no binding (tested: 147 nM)

# Target: T3, human P2X7 (human, UniProt Q99572 1-595)
# T3 construct: on transfected Hek293 cells; also called hP2X7
# T3 sequence: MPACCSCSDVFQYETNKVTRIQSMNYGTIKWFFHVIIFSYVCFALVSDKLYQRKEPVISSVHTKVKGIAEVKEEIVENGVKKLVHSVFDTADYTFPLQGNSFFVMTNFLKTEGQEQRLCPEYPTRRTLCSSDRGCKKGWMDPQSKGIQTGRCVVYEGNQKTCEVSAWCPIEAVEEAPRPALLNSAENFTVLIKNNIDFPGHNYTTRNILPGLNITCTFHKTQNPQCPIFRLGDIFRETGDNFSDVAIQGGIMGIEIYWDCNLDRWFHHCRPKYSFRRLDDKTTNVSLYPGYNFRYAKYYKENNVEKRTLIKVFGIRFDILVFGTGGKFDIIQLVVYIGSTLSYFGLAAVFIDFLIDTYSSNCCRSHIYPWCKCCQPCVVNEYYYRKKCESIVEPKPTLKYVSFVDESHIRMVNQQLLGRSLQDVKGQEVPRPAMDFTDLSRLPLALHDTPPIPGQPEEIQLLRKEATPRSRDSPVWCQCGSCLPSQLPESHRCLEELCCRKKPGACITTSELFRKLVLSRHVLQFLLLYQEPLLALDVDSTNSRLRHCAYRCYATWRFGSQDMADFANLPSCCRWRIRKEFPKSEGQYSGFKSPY
# Experiment: as above
row,Binder,binding result
1,B7,no binding (tested: 147 nM)
2,B8,no binding (tested: 147 nM)
3,B9,no binding (tested: 147 nM)
4,B10,no binding (tested: 147 nM)
5,B11,no binding (tested: 147 nM)
6,B12,no binding (tested: 147 nM)
7,B13,no binding (tested: 147 nM)
8,B14,no binding (tested: 147 nM)
9,B15,no binding (tested: 147 nM)
10,B16,no binding (tested: 147 nM)
11,B17,no binding (tested: 147 nM)
12,B18,no binding (tested: 147 nM)
13,B19,no binding (tested: 147 nM)

# Target: T1, mouse P2X7
# Experiment: flow cytometry, periplasmic extract pre-incubated with anti-myc-FITC, on mP2X7-Hek293 cells;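 also: periplasmic extract diluted 10-fold and premixed 45 min at 4 °C with FITC anti-myc antibody, giving pseudo-bivalent Nanobodies, before binding to the cells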
# Protocol: Ten-fold diluted PE were pre-incubation with 0.5 μg anti-myc FITC-conjugated antibodies (AbD Serotec, cat no. MCA2200F) (creating pseudo-bivalent Nanobodies in order to increase binding strength) in 0.1 ml PBS/10% FCS for 45 minutes at 4° C. […] Alternatively, sequential staining of 10-fold diluted PE with anti-myc FITC-conjugated antibodies was done after incubation with the cells.
row,Binder,MFI FACS (pre-Myc incubation)
1,B5,64 MFI
2,B6,55 MFI

# Target: T1, mouse P2X7
# Experiment: cell-based or functional assay
Binder,"IC50 (nM) against 20 uM NAD (CD62L shedding, Yac-1 cells)","IC50 (nM) against 100 uM ATP (CD62L shedding, Yac-1 cells)","ATP IC50 by 2 uM NB (head prints 'mM'; ligand titration at fixed Nanobody, CD62L shedding, Yac-1 cells)"
B7,4000 nM,386 nM,–
B8,4000 nM,576 nM,–
B11,–,–,0.047 mM
B13,3650 nM,436 nM,0.2 mM
B17,136 nM,35 nM,0.469 mM

# Target: T1, mouse P2X7
# Experiment: phage ELISA on fixed mP2X7-CHO vs untransfected CHO cells;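 also: phage culture supernatant diluted 10-fold, applied for 1 h to paraformaldehyde-fixed, BSA-blocked cells in 96-well plates, with bound phage read via HRP-linked anti-M13 antibody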
# Protocol: as §1
row,Binder,Fold Cho P2X7/wt (phage ELISA)
1,B7,21 fold
2,B8,16 fold
3,B9,35 fold
4,B10,18 fold
5,B11,19 fold
6,B12,30 fold
7,B13,28 fold
8,B14,32 fold
9,B15,56 fold
10,B16,8 fold
11,B17,17 fold
12,B18,23 fold
13,B19,24 fold

# — patent US20160264664A1 (Ablynx, published 2016)
